T1: Human IFNAR1 on cells (HEK Blue IFNα/β cells, Daudi cells, human whole blood) (human, UniProt P17181 28-557)
T1 sequence (looked up): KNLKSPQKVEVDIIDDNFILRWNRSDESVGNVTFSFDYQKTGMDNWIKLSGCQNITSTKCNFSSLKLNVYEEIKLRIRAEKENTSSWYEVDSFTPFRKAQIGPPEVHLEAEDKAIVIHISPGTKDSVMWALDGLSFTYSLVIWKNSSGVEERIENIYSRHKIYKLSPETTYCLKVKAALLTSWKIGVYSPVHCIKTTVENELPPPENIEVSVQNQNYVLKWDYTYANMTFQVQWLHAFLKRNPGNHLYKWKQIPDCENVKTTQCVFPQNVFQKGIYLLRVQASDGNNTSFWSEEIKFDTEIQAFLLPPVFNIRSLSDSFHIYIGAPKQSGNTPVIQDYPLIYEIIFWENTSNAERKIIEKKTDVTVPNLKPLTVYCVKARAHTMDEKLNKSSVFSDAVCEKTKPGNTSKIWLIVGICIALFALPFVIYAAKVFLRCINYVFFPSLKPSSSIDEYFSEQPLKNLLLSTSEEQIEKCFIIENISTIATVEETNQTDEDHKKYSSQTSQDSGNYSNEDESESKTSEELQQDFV

T2: Human interferon alpha receptor 1 (IFNAR1) (human, UniProt P17181 28-436)
T2 construct: Soluble antigen flowed over captured antibody in Biacore; also called human IFNAR1; Human Interferon alpha/beta Receptor 1
T2 sequence: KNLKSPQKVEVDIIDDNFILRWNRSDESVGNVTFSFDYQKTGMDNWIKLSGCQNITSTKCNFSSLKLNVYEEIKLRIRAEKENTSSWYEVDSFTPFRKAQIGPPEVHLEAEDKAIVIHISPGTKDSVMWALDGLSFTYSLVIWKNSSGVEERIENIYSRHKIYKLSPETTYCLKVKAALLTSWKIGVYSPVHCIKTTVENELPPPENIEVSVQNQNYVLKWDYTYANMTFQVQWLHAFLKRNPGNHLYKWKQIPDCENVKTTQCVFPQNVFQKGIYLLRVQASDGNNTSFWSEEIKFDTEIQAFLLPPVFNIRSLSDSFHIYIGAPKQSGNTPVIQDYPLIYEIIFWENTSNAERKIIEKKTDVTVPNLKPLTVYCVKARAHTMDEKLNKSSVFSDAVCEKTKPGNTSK


Key:
[1] = biological target: T1, Human IFNAR1 on cells (HEK Blue IFNα/β …); assay: cell-based or functional assay
[2] = biological target: T2, Human interferon alpha receptor 1 …; assay: SPR, Biacore T200, antibody captured on Protein A chip, antigen as analyte, 25 C, 1:1 model, mean of three
Protocol: BiacoreT200 was used to detect the affinity between QX006N (HZD1203-45-IgG4.1) and human IFNAR1. All processes were performed at 25° C. A commercial Protein A chip was used to immobilize an appropriate amount of antibody through the capture method so that Rmax was around 50 RU and the capture flow rate was 10 μl/min. The antigen was gradient diluted, the flow rate of the instrument was switched to 30 μl/min, flowed through the reference channel and the fixed antibody channel in order of concentration from low to high, and flowed through buffer as the negative control. The chip was regenerated with pH1.5 glycine after each binding and dissociation was completed. The built-in analysis software of the instrument was used to select the 1:1 binding model in the Kinetics option for fitting, and the antibody's binding rate constant kₐ, dissociation rate constant kd, and dissociation equilibrium constant KD values were calculated.
The data in the table were: each sample was tested three times and the average value was calculated.

EC50 of neutralising the effect of interferon (0.8 ng/ml IFNα.2b) on Daudi cell proliferation (CellTiter-Glo) [1] [µg/mL] | IC50 of inhibiting interferon (0.2 ng/ml IFNα.2b) induced STAT1/2 phosphorylation in HEK Blue IFNα/β reporter cells [1] [µg/mL] | IC50 of inhibiting interferon (8 ng/ml IFNα.2b with 40 ng/ml TNF-α) induced release of CXCL10/IP10 from human whole blood [1] [µg/mL] | Kd [2] [nM] | koff [2] [s⁻¹] | kon [2] [M⁻¹ s⁻¹] | Binder
0.0317 | 0.00443 | 0.562 | – | – | – | Anifrolumab (antibody, V domains shown) VH: EVQLVQSGAEVKKPGESLKISCKGSGYIFTNYWIAWVRQMPGKGLESMGIIYPGDSDIRYSPSFQGQVTISADKSITTAYLQWSSLKASDTAMYYCARHDIEGFDYWGRGTLVTVSS VL: EIVLTQSPGTLSLSPGERATLSCRASQSVSSSFFAWYQQKPGQAPRLLIYGASSRATGIPDRLSGSGSGTDFTLTITRLEPEDFAVYYCQQYDSSAITFGQGTRLEIKR
0.0299 | 0.00523 | 0.698 | 0.108 | 3.76e-05 | 347000 | QX006N (HZD1203-45-IgG4.1) (antibody, V domains shown, Humanized rabbit antibody (clone 1203#) with human IgG4 constant region, expressed in ExpiCHO-S cells; also called anti-human interferon alpha receptor 1 (IFNAR1) monoclonal antibody of the present application) VH: EVQLVESGGGLVQPGGSLRLSCAASGFSLSSYYMTWVRQAPGKGLEWVSVINVYGGTYYASWAKGRFTISRDNSKNTLYLQMNSLRAEDTAVYYCAREDVAVYMAIDLWGQGTLVTVSS VL: AIQMTQSPSSLSASVGDRVTITCQASQSISNQLSWYQQKPGKAPKLLIYDASSLASGVPSRFSGSRSGTKFTLTISSLQPEDFATYYCLGIYGDGADDGIAFGGGTKVEIKR

Source: patent publication US20240254244A1 (QYUNS THERAPEUTICS, published 2024)
